# The supplement of paper PMC10567573
# B1: PTPN9 (parent)
# chain: NKWTVQYNVSPLSWNVAVKFLMAR
# Variants of: B1
# Test: protein stability index of a GFP-peptide fusion (GPS, HEK-293T) (PSI 1-6); higher = more stable
# Conditions: c terminus: a fixed tail appended
# 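Also: lentivirally expressed fusions sorted by FACS into six bins by GFP to DsRed ratio, PSI derived from sequencing read proportions per bin multiplied by bin number.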
row,Variant,protein stability index
1,N15K,4.23
2,N15P,2.39
3,N15E,3.45
4,N15T,2.89
5,N15A,3.46
6,N15Y,1.9
7,N15I,3.96
8,N15F,2.02
9,N15W,2.27
10,N15M,2.53
11,N15L,1.92
12,T4A,2.55
13,T4M,2.57
14,T4P,1.76
15,T4N,1.81
16,T4D,2.22
17,T4Y,3.46
18,T4L,1.71
19,T4Q,2.27
20,F20P,1.68
21,F20Y,2.94
22,F20H,1.67
23,F20C,1.68
24,F20E,2.68

row,Variant,protein stability index
1,F20N,2.25
2,F20R,3.62
3,F20W,3.8
4,F20D,1.97
5,F20G,2.97
6,F20T,2.1
7,F20K,1.4
8,F20I,2.27
9,F20Q,2.38
10,F20S,2.3
11,F20A,3.35
12,L21G,1.73
13,L21W,1.63
14,L21S,3.66
15,L21P,1.26
16,L21M,2.35
17,L21I,3.32
18,L21N,1.72
19,L21K,2.5
20,L21E,1.9
21,L21V,3.01
22,L21D,2.03
23,L21Y,2.89
24,L21A,3.37

row,Variant,protein stability index
1,L21R,3.22
2,L21T,2.9
3,L21H,2.98
4,S13I,1.99
5,S13A,1.35
6,S13K,2.74
7,S13W,2.65
8,S13V,2.88
9,S13H,2.51
10,S13G,2.81
11,S13D,2.74
12,S13P,2.31
13,S13M,3.55
14,S13N,3.31
15,S13Y,2.32
16,S13E,1.69
17,S13Q,2.02
18,S13R,2.34
19,S13C,3.09
20,N1W,3.28
21,N1H,2.3
22,N1V,2.06
23,N1S,1.54
24,N1F,3.7

row,Variant,protein stability index
1,V18E,1.49
2,V18A,2.48
3,V18L,2.72
4,V18Y,2.04
5,V18F,2.44
6,V18I,2.62
7,V18W,1.77
8,V18N,2.21
9,V18D,2.03
10,V18T,2.76
11,V18P,1.28
12,V18K,2.72
13,V18Q,1.49
14,V18C,2.73
15,V18H,1.78
16,V18G,1.8
17,V18R,2.08
18,V18S,2.94
19,K2Y,2.49
20,K2D,3.84
21,K2I,3.27
22,K2N,1.83
23,K2M,3.14
24,K2F,1.49

row,Variant,protein stability index
1,K2E,3.64
2,K2W,2.89
3,K2T,3.13
4,K2L,3.54
5,K2Q,2.27
6,K2R,1.66
7,K2A,2.25
8,K2C,3.56
9,M22D,2.27
10,M22C,2.06
11,P11H,3.88
12,P11E,2.43
13,P11N,2.66
14,P11L,2.59
15,P11W,4.3
16,P11S,4.04
17,P11A,2.01
18,P11G,2.51
19,V5H,3.13
20,V5T,3.23
21,V5C,1.83
22,V5M,3.19
23,V5P,1.94
24,V5Y,1.67

row,Variant,protein stability index
1,V5A,2.04
2,V5G,2.31
3,V5S,1.99
4,V5L,2.96
5,V5W,5.45
6,V5D,1.76
7,V5K,3.16
8,V5Q,1.92
9,V5I,3.45
10,V5E,2.94
11,V5N,1.95
12,W14P,2.08
13,W14H,2.15
14,W14I,3.02
15,W14R,2.4
16,W14T,1.93
17,W14C,2.29
18,W14E,1.28
19,W14K,2.24
20,W14V,2.4
21,W14G,2.35
22,W14Y,2.01
23,W14Q,2.62
24,W14A,2.09

row,Variant,protein stability index
1,W14N,2.06
2,W14L,2.71
3,W14D,1.62
4,W14M,2.75
5,W14S,1.78
6,Y7I,2.83
7,Y7T,1.81
8,Y7E,2.17
9,Y7P,1.84
10,Y7C,2.47
11,Y7Q,1.75
12,Y7L,2.76
13,Y7K,2.94
14,Y7R,1.14
15,Y7N,2.14
16,Y7M,2.91
17,Y7G,1.15
18,Y7F,3.3
19,Y7H,1.68
20,Y7V,3.44
21,Y7D,1.91
22,Y7A,3.49
23,Y7S,2.84
